Tests used:
[1] = target: DENV-3 VLP (Dengue virus serotype 3); experiment: BLI (Octet-HTX), IgG captured on Protein A biosensor, 5 ug/mL DENV-VLP, 1:1 model
[2] = target: DENV-3 VLP (Dengue virus serotype 3); experiment: BLI (Octet-HTX), IgG captured on Protein A biosensor, 5 ug/mL DENV-VLP

## 4G2 (antibody)
[1]
  koff: 0.000345 s⁻¹
[2]
  response: 0.316
